Assay: yeast display, Sf9 membrane polyspecificity reagent, FACS + sequencing; frameworks hold sequencing errors
Procedure, shortened: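 In a synthetic yeast display library (Saccharomyces cerevisiae BJ5465), nanobody expression was induced with galactose for 36–48 hours. FACS gates were set low and high (top ~1%) using anti-HA fluorescence for expression and streptavidin fluorescence for binding of the Sf9 membrane reagent. Each polyreactivity label is drawn from the gate of origin.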

QVQLVESGGGLVQAGGSLRLSCAASGRIFPFYAMGWYIQAPGKERELVAAISRSGRTNYADSVKGRFTISRDNAKNTVFLQMNSLKPEDTAVYYCNADYYLFDFDSWGQGTQVTVSS
polyreactivity (PSR sort gate): low polyreactivity

QVQLVESGGGLVQAGGSLRLSCAASGRIFPFYAMVWYRQAPGKERELVAAITTSGGSTYYADSVKGRFTISRDNAKNTVYLQMNRLKPEDTAVYYCNKRLGLELAPWEMNYWGQGTQVTVSS
polyreactivity (PSR sort gate): low polyreactivity

QVQLVESGGGLVQAGGSLRLSCAASGRIFPGYAMGWYRQAPGKEREFVAAITASGGTTYYADSVKGRFTISRDNAKNTVYLQMNSLKPEDTAVYYCAVYDWRYYLGKLMEYWGQGTQVTVSS
polyreactivity (PSR sort gate): high polyreactivity

QVQLVESGGGLVQAGGSLRLSCAASGRIFPGYAMGWYRQAPGKERELVAAISKGGGSKYYADSVKGRFTISRDNAKNTVYLQMNSLKTEDTAVYYCAAQSYPRSYGLDYWGQGTQVTVSS
polyreactivity (PSR sort gate): high polyreactivity

QVQLVESGGGLVQAGGSLRLSCAASGRIFPGYAMGWYRQAPGKERELVAAISTNGGRTYYADSVKGRFTISRDNAKNTVYLQMNSLKPEDTADYYCAAESAYDAYDYWGQGTQVTVSS
polyreactivity (PSR sort gate): high polyreactivity

QVQLVESGGGLVQAGGSLRLSCAASGRIFPGYDMGWYRQAPGKERELVAAISASGGSTYYADSVKGRFTISRDNAKNTVYLQMNSLKPEDTAVYYCNAVYRLIRFDYWGQGTQVTVSS
polyreactivity (PSR sort gate): high polyreactivity

QVQLVESGGGLVQAGGSLRLSCAASGRIFPGYVMGWYRQAHGKERELVAAITRGGSTYYADSVKGRFTISRDNAKNTVYLQMNSLKPEDTAVYYCAAKHSHIHYNYWGQGTQVTVSS
polyreactivity (PSR sort gate): low polyreactivity

QVQLVESGGGLVQAGGSLRLSCAASGRIFPHYAMGWFRQAPGKERELVAAISSGGRTNYADSVKGRFTISRDNAKNTVYLQMNSLKREDSAVYYCAAEAPFYVIGRRYRGYDYWGQGTQVTVSS
polyreactivity (PSR sort gate): high polyreactivity

QVQLVESGGGLVQAGGSLRLSCAASGRIFPHYTMGWYRQAPGKERELVATISGRGGSTYYADSVKGRFTISRDIAKNTVYLQMNSLKPEDTAVYYCAREGCRRYAGLYYWGQGTQVTVSS
polyreactivity (PSR sort gate): high polyreactivity

QVQLVESGGGLVQAGGSLRLSCAASGRIFPKYAMGGDRQAPGTERPLVAAISSSGGSKYYADSVKGRFTISRDNAKNTVYFQMNSLKPEDTAVYYCNVDKATRDRYPGFDYWGQGTQVTVSS
polyreactivity (PSR sort gate): high polyreactivity

QVQLVESGGGLVQAGGSLRLSCAASGRIFPKYTMGWYRQAPGKERELVASINSSGRTTYADSVKGRFTITRDNAKNTVYLQMNSLKPEDTAVYYCAKRVFSARGYGYWGQGTQVTVSS
polyreactivity (PSR sort gate): low polyreactivity

QVQLVESGGGLVQAGGSLRLSCAASGRIFPPNAMGWYRQAPGKERELVAAITGSGGSTYYADSVKGRFTITRDNAKNTVYLQKNSLKPADTAVYYCAVESLGRVSRGYDYWGQGTQVTVSS
polyreactivity (PSR sort gate): low polyreactivity

QVQLVESGGGLVQAGGSLRLSCAASGRIFPPYAMGWYRQAPGKERELVAAISSSTTSTYYADSVKGRFTISRDNAKNTVYLQMNSLKPEDTGVYYCAAQPYRAAFPYSSRRHLQYEYWGQGTQVTVSS
polyreactivity (PSR sort gate): low polyreactivity

QVQLVESGGGLVQAGGSLRLSCAASGRIFPPYAMGWYRQAPGKERELVATISYTGGSTYYADSVKGRFTISRDNAKNTVYLQMNRLKPEDTAVYYCNAEYYYWNREGDYWGQGTQVTVSS
polyreactivity (PSR sort gate): low polyreactivity

QVQLVESGGGLVQAGGSLRLSCAASGRIFPPYDMGWYRQATGKEREFVAAIDWTGGSTYYADSVKGRFTISRDNAKNTVYLQMNSLKPEDTAVYYCNAEQSYRGVGWRYDYWGQGTQVTVSS
polyreactivity (PSR sort gate): low polyreactivity

QVQLVESGGGLVQAGGSLRLSCAASGRIFPQYAMGWSRQAPGKERELVAGITSVGSTYYADSVKGRFTISRDNAKNTVYLQMNSLKPEDTAVYYCAAVPSRYVRANRRTYRYYYWGQGTQVTVSS
polyreactivity (PSR sort gate): high polyreactivity

QVQLVESGGGLVQAGGSLRLSCAASGRIFPRNAMGWYRQAPGKERELVAAISSGGGGTYYADSVKGRFTISRDNAKNTVYLQMNSLKPEDTAVYYCNAAYTYVTAWYYYWGQGTQVTVSS
polyreactivity (PSR sort gate): high polyreactivity

QVQLVESGGGLVQAGGSLRLSCAASGRIFPRNTMGRYRQAPGKERELVAGITSGGGTYYADSVKGRFTISRDNAKNTVYFQMNRLKPEDTAVFYCAARPWRSRYYGGLGRRFDYWGQGTQVTVSS
polyreactivity (PSR sort gate): high polyreactivity

QVQLVESGGGLVQAGGSLRLSCAASGRIFPRYAMGWYRQAPGKERELVATISSGGSTYYADSVKGRFTISRDNAKNTVYLQMNSLKPEDTAVYYCAARKRPYTVINGMDYWGQGTQVTVSS
polyreactivity (PSR sort gate): low polyreactivity

QVQLVESGGGLVQAGGSLRLSCAASGRIFPRYAMGWYRQAPGKERQLVAAITSGDSTHYADSVKGRFTISRDNAKNTVYLQMNSLKPEDTAVYYCAAKYPRYGRHAYGYWGQGTQVTVSS
polyreactivity (PSR sort gate): high polyreactivity

QVQLVESGGGLVQAGGSLRLSCAASGRIFPSYAMGWYRQAPGKERELVAAISYSGASTYYADSVKGRFTISRDNAKNTVYLQMNSLKPEDTAVYYCYQLVEEDYWGLGTQVTVSS
polyreactivity (PSR sort gate): low polyreactivity

QVQLVESGGGLVQAGGSLRLSCAASGRIFPTYAMGWYRQAPGKERELVAGITSGGRTNYADSVKGRFTISRDNAKNTVYLQMNSLKPEDTAVYYCAKRVWPRDQYGKRNPRMDYWGQGTQVTVSS
polyreactivity (PSR sort gate): high polyreactivity

QVQLVESGGGLVQAGGSLRLSCAASGRIFPVNAMGWYRQAPGKEREFVARISRRGGSTYYADSVKGRFTISRDNAKNTVYLQMNSLKPEDTAVYYCAAVSSRYSYDYWGQGTQVTVSS
polyreactivity (PSR sort gate): high polyreactivity

QVQLVESGGGLVQAGGSLRLSCAASGRIFPVYAMGWYRQAPGNERELVAAITSGVGSTYYADSVKGRFTISRDNAKNTVYLQMNSLKPEDTAVYYCAADSSYLTYWEYDYWGQGTQVTVSS
polyreactivity (PSR sort gate): low polyreactivity

QVQLVESGGGLVQAGGSLRLSCAASGRIFPWNAMGWYRQAPGKDRELVAAISFSAGRTYYADSVKGRFTISRDNAKNTVYLQMNSLKPEDTAVYYCNARIGSPWVWTGIIGYEYWGQGTQVTVSS
polyreactivity (PSR sort gate): low polyreactivity

QVQLVESGGGLVQAGGSLRLSCAASGRIFPWNAMGWYRQAPGKERDLVAAISFSAGRTYYADSVKGRFTISRDNAKNTVYLQMNSLKPEDTAVYYCNARIGSRWVWTGIIGYEYWGQGTQVTVSS
polyreactivity (PSR sort gate): low polyreactivity

QVQLVESGGGLVQAGGSLRLSCAASGRIFPWYAMGWYRQAPGKEREVVAAIRWRGGGTYYADSVKGRFTISRDNAKNTVYLQMNSLKPEDTAVYYCAARRPANGMGYWGQGTQVTVSS
polyreactivity (PSR sort gate): high polyreactivity

QVQLVESGGGLVQAGGSLRLSCAASGRIFPYKDMGWSRQAHGKEMELVAGISYSGGSTYYADSVKGRFTISRDNAKNTVYLQMNSLKPEDTAVYYCARDYSRHKGDYWGQGTQVTVSS
polyreactivity (PSR sort gate): low polyreactivity

QVQLVESGGGLVQAGGSLRLSCAASGRIFPYYAMGWYRQAPGKERELVAAITTRGGSTYYADSVKGRFTISRDNAKNTVYLQMNSLKPEDTAVYYCAAVTFGRMEYWGQGTQVTVSS
polyreactivity (PSR sort gate): low polyreactivity

QVQLVESGGGLVQAGGSLRLSCAASGRIFPYYDMGWYREAPGKERELVAAITWNGGSTYYADSVKGRFTISRDNAKNTVYLQMNSLKPADTAVYYCAVEPYYYGEDYWGQGTQVTVSS
polyreactivity (PSR sort gate): low polyreactivity

QVQLVESGGGLVQAGGSLRLSCAASGRIFPYYDMGWYRQAPGKERELVAAITWNGGSTYYADSVKGRFTISRDNAKNTVFLQMNSLKPEDSAVYYCAVEPYYYGEDYWGQGTQVTVSS
polyreactivity (PSR sort gate): low polyreactivity

QVQLVESGGGLVQAGGSLRLSCAASGRIFQFYAMGWYRQAPGKERELVASISASGARTYYADSVKGRFTISRDNAKNTVYLQMNSLNPEDTAVYYCNVVYFDGNPEDYEYWGKGTQVTVSS
polyreactivity (PSR sort gate): high polyreactivity

From the nanobody polyreactivity screen of Harvey et al. (2022)
